Test results published in patent US20060234926.

Biological target: beta2-microglobulin, native monomer (UniProt P61769)
Experiment: SPR
Settings: at 0.5 uM RNA; 317 nM at 0.1 uM RNA; TMGA buffer pH 3.6

beta2-microglobulin, native monomer, sequence (P61769 21-119): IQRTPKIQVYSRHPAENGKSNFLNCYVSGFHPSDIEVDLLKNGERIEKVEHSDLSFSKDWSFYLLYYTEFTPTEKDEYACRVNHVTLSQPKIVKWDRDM

GGCNUGACANGGCAGGAUAGCCGGNCNANGCGANCNNUNGGNCCNCGANACCCGACNGUGG [N4]
Kd: 104 nM
